Measured values as given in patent US12454527B2, “Conjugate monomethyl auristatin E to obtain a composition for treatment of prostate cancer” (priority 2019, dated 2025).
“And” between values parts separate entries of the source, which are not always exact repeats. Equal values may be shown once. Read-outs that look alike come from different tables or passages of the source. Starred links: 1 amine or outer side, 2 acyl side, 3 side chain; linkers in the order of their positions; H or OH if unused. Non-standard residues stand in square brackets, D forms with d. Residues, ends and D or L forms follow the SMILES beside them. ξ: configuration not given here. *: point of attachment. GluureaLys(ε-3-ClBenzyl) = O=C(O)CC[C@H](NC(=O)N[C@@H](CCCCN(Cc1cccc(Cl)c1)*)C(=O)O)C(=O)O; Dolaproine = CO[C@@H]([C@@H]1CCCN1)[C@@H](C)C(=O)O; Dil = CC[C@H](C)[C@H](NC)[C@@H](CC(=O)O)OC; X1 = O=C(CCCc1cn(CCCN[*:1])nn1)[*:2]; PABC = O=C(OCc1ccc(N[*:1])cc1)[*:2]; X2 = C[C@@H](N*)[C@@H](O)c1ccccc1; Cit = NC(=O)NCCC[C@H](N)C(=O)O; Suc = O=C(CCC(=O)[*:2])[*:1]; NMeV = CN[C@H](C(=O)O)C(C)C; ξV = CC(C)C(N)C(=O)O; Ahx = NCCCCCC(=O)O

Assay: Pharmacokinetics in plasma of rabbits after a single injection; for T1/2: dose 0.81 mg/kg; for Vd: dose 0.81 mg/kg
Type: in vivo
Description: The pharmacokinetics study for the Conjugate (I) product in plasma of rabbits and rats after a single injection.
The leporids and rodents are the standard targets for preclinical studies of potential drug products as well as determining the pharmacokinetic parameters. The rabbits and rats are recommended as test systems to study pharmacokinetic properties of pharmaceutical products by the regulatory documents (FIG. 7, FIG. 8).
[…] The pharmacokinetic data, determined from this number of test animals, are sufficient to obtain the primary quantitative characteristics of test product distribution and elimination and the calculation of descriptive statistics parameters.
• 1. Conjugate (1) • 2. Solubilizer Pluronic F127—in the amount, five-fold greater than the conjugate amount by weight. • 3, Diluent—Haemodes infusion solution. • Dimethyl sulfoxide—in the amount of 5% of the prepared volume. • Rabbit experiment (see Tables 5, 6), • Rat experiment (see Tables 7, 8).

[1] = male, Soviet Chinchilla, rabbit, plasma, rabbits N=6, read-out: Concentration in blood plasma, Mean value
[2] = male, Soviet Chinchilla, rabbit, plasma, rabbits N=6, read-out: Concentration in blood plasma, Median
[3] = male, Soviet Chinchilla, rabbit, plasma, rabbits N=6, read-out: Concentration in blood plasma, Geometr. mean
[4] = male, Soviet Chinchilla, rabbit, plasma, rabbits, read-out: Concentration in blood plasma (individual animals)

With `CC[C@H](C)[C@@H]([C@@H](CC(=O)N1CCC[C@H]1[C@H](OC)[C@@H](C)C(=O)N[C@H](C)[C@@H](O)c1ccccc1)OC)N(C)C(=O)[C@@H](NC(=O)[C@H](C(C)C)N(C)C(=O)OCc1ccc(NC(=O)[C@H](CCCNC(N)=O)NC(=O)C(NC(=O)CCCc2cn(CCCNC(=O)[C@H](Cc3ccc(O)cc3)NC(=O)[C@H](Cc3ccccc3)NC(=O)CCC(=O)NCCCCCC(=O)N(CCCC[C@H](NC(=O)N[C@@H](CCC(=O)O)C(=O)O)C(=O)O)Cc3cccc(Cl)c3)nn2)C(C)C)cc1)C(C)C` (stereo partly drawn) [Conjugate (I)] ({GluureaLys(ε-3-ClBenzyl)-Ahx-Suc}-FY[X1][ξV][Cit][PABC][NMeV]V[Dil][Dolaproine]-X2) the level at 4 h [1] was 2520 ng/mL, the level at 4 h [2] was 2540 ng/mL and the level at 6 h [3] was 1510 ng/mL. It also gave a level at 6 h [1] of 1540 ng/mL, a level at 6 h [2] of 1620 ng/mL and a level at 8 h (male, Soviet Chinchilla, rabbit, plasma, rabbits N=6, 8.00 hour, read-out: Concentration in blood plasma, Geometr. mean) of 1180 ng/mL. It also gave a level at 8 h (male, Soviet Chinchilla, rabbit, plasma, rabbits N=6, 8.00 hour, read-out: Concentration in blood plasma, Mean value) of 1210 ng/mL, a level at 10 h [3] of 857 ng/mL and a level at 10 h [1] of 878 ng/mL. It also gave a level at 10 h [2] of 892 ng/mL, a level at 12 h [3] of 631 ng/mL and a level at 12 h [1] of 657 ng/mL. The level at 12 h [2] was 558 ng/mL, the C0 (male, Soviet Chinchilla, rabbit, plasma, rabbits N=6, read-out: C0, Geometr. mean) was 10900 ng/mL and the C0 (male, Soviet Chinchilla, rabbit, plasma, rabbits N=6, read-out: C0, Mean value) was 11100 ng/mL. For the same compound, the clearance (male, Soviet Chinchilla, rabbit, plasma, rabbits N=6, read-out: CI, Geometr. mean (converted)) was 0.389 mL/min/kg, the clearance (male, Soviet Chinchilla, rabbit, plasma, rabbits N=6, read-out: CI, Mean value (converted)) was 0.394 mL/min/kg and the clearance (male, Soviet Chinchilla, rabbit, plasma, rabbits N=6, read-out: CI, Median (converted)) was 0.374 mL/min/kg. The level at 0.08 h (male, Soviet Chinchilla, rabbit, plasma, rabbits, 0.08 hour, read-out: Concentration in blood plasma (individual animals)) was 9580 ng/mL, the level at 0.25 h (male, Soviet Chinchilla, rabbit, plasma, rabbits, 0.25 hour, read-out: Concentration in blood plasma (individual animals)) was 10700 ng/mL and the level at 0.5 h (male, Soviet Chinchilla, rabbit, plasma, rabbits, 0.50 hour, read-out: Concentration in blood plasma (individual animals)) was 7250 ng/mL. For the same compound, the level at 1 h (male, Soviet Chinchilla, rabbit, plasma, rabbits, 1.00 hour, read-out: Concentration in blood plasma (individual animals)) was 5100 ng/mL, the level at 1.5 h (male, Soviet Chinchilla, rabbit, plasma, rabbits, 1.50 hour, read-out: Concentration in blood plasma (individual animals)) was 4850 ng/mL and the level at 2 h (male, Soviet Chinchilla, rabbit, plasma, rabbits, 2.00 hour, read-out: Concentration in blood plasma (individual animals)) was 3840 ng/mL. The level at 6 h [4] was 1310 ng/mL, the level at 8 h (male, Soviet Chinchilla, rabbit, plasma, rabbits, 8.00 hour, read-out: Concentration in blood plasma (individual animals)) was 1360 ng/mL and the level at 10 h [4] was 859 ng/mL. The “AUCt-∞/AUC0-∞, Geometr. mean” value (rabbits N=6) was 11.364%, the “AUCt-∞/AUC0-∞, Mean value” (rabbits N=6) was 12.690% and the “AUCt-∞/AUC0-∞, Median” value (rabbits N=6) was 13.29%. The “C0, Median” value (rabbits N=6) was 9880 ng/mL, the “Kel, Geometr. mean” value (rabbits N=6) was 0.160 h⁻¹ and the “Kel, Mean value” (rabbits N=6) was 0.170 h⁻¹. The “Kel, Median” value (rabbits N=6) was 0.153 h⁻¹, the “Concentration in blood plasma, Geometr. mean” value (rabbits N=6, 1.50 hour) was 5046 ng/mL and the “Concentration in blood plasma, Median” value (rabbits N=6, 8.00 hour) was 1195 ng/mL. The “Concentration in blood plasma (individual animals)” value (rabbits, 0.08 hour) was 9617 ng/mL, the “Concentration in blood plasma (individual animals)” value (rabbits, 2.00 hour) was 3781 ng/mL and the “Concentration in blood plasma (individual animals)” value (rabbits, 3.00 hour) was 3693 ng/mL. The AUC0-t (rabbits, individual animals) was 39504 ng·h/mL and 21886 ng·h/mL and 33617 ng·h/mL and 28972 ng·h/mL and 28872 ng·h/mL, the “AUC0-∞” value (rabbits, individual animals) was 42004 ng·h/mL and 26025 ng·h/mL and 39814 ng·h/mL and 36928 ng·h/mL and 30768 ng·h/mL and the “AUCt-∞/AUC0-∞” value (rabbits, individual animals) was 11.01% and 5.95% and 15.90% and 15.57% and 21.54% and 6.16%. For the same compound, the C0 (rabbits, individual animals) was 17049 ng/mL and 9815 ng/mL and 9947 ng/mL and 9624 ng/mL and 9582 ng/mL, the CI (rabbits, individual animals) was 0.3827 mL/min/kg and 0.3213 mL/min/kg and 0.5187 mL/min/kg and 0.339 mL/min/kg and 0.3655 mL/min/kg and 0.4388 mL/min/kg and the Kel (rabbits, individual animals) was 0.137 h⁻¹ and 0.234 h⁻¹ and 0.123 h⁻¹ and 0.168 h⁻¹ and 0.099 h⁻¹ and 0.256 h⁻¹. For the same compound, the MRT0-t (rabbits, individual animals) was 3.14 h and 3.29 h and 3.88 h and 3.74 h and 3.46 h, the T1/2 (rabbits, individual animals) was 5.06 h and 2.97 h and 5.63 h and 4.12 h and 7.01 h and 2.70 h and the Vd (rabbits, individual animals) was 0.16766 L/kg and 0.08255 L/kg and 0.2526 L/kg and 0.12101 L/kg and 0.22174 L/kg and 0.1027 L/kg.
